The source of these data is US20190038796A1.

The target of this assay is EGF-MMP (recombinant epidermal growth factor with N-terminal PLP reactive site AKT, polyhistidine tag and MMP cleavage site VPLSLYSG). In words: cell-based or functional assay.
Sequence of EGF-MMP (recombinant epidermal growth factor with N-terminal PLP reactive site AKT, polyhistidine tag and MMP cleavage site VPLSLYSG) (chain, as listed by the source limits assumed): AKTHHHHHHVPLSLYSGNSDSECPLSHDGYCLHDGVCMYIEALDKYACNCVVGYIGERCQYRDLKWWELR

Regarding “Recombinant, human pro-MMP-9 expressed in CHO cells, activated with amino-phenyl mercuric acetate (APMA) (from UniProt P14780 20-707) (enzyme)”, the EGF released from the conjugated PCL fiber mat after 4 hours of incubation with MMP-9 (ELISA) is 20 ng/mg and the EGF released from the conjugated PCL fiber mat over the first 10 minutes after the enzyme was added (ELISA) (ng EGF/mg PCL) turned out to be 11.
